This is an account of results in doi:10.1101/2025.07.21.665923 (bioRxiv, 2025).

The target in assay [1] is NaPi-IIa peptide (15 C-terminal residues of NaPi-IIa), TAMRA-labelled (human (identical in mouse)). Description: fluorescence polarisation. On the technique in general: Fluorescence polarisation rises when a labelled molecule tumbles more slowly, as on binding a larger partner.
Assay [2] deals with N-terminally biotinylated URAT1 peptide (human). Description: SPR.
The target in assay [3] is URAT1 peptide (15 C-terminal residues of human URAT1), TAMRA-labelled (human). Description: fluorescence polarisation.
The target of assay [4] is T1, full-length human NHERF1 (human, UniProt O14745 1-358).
T1 sequence (looked up): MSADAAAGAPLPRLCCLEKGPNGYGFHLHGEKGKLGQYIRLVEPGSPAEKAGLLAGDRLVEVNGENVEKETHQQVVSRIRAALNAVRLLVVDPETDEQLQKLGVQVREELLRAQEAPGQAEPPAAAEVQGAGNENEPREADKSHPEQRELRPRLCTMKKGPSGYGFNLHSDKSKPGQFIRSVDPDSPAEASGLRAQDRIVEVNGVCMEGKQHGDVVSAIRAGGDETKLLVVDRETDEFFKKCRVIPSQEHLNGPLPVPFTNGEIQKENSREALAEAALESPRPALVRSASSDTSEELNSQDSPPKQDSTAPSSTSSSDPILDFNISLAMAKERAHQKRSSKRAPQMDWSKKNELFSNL
Description: fluorescence polarisation.

Assay [5] concerns the target T2, full-length mouse Pdzk1 (mouse, UniProt Q9JIL4 1-519).
T2 sequence (looked up): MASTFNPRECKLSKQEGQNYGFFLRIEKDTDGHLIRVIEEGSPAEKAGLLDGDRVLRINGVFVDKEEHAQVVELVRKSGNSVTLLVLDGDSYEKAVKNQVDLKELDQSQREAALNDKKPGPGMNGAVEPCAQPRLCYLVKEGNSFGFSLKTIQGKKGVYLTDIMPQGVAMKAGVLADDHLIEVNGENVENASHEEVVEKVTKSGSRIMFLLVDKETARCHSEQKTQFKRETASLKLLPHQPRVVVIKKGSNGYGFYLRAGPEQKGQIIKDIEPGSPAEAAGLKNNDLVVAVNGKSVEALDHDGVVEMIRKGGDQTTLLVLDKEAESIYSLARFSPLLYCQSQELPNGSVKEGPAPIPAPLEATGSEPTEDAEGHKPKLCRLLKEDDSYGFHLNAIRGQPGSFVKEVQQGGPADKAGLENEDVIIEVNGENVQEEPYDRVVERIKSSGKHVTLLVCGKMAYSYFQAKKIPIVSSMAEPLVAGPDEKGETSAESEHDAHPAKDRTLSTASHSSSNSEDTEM
Description: fluorescence polarisation.

For assay [6], the target named is T3, full-length human PDZK1 (NHE3 regulatory factor 3, NHERF3) (human, UniProt Q5T2W1 1-519).
T3 sequence (looked up): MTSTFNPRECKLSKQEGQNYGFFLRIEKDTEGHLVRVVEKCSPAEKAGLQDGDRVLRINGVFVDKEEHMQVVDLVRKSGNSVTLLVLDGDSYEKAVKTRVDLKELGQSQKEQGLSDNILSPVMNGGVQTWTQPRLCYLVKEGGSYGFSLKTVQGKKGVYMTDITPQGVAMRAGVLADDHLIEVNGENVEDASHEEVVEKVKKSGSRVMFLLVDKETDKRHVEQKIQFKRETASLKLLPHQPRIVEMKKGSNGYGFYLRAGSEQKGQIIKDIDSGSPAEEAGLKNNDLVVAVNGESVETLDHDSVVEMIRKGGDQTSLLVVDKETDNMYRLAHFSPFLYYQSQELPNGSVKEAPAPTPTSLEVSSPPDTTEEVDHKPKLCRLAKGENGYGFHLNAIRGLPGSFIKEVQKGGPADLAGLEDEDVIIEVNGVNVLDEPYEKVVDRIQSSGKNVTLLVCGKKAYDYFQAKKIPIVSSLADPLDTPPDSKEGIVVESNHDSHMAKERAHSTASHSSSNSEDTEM
Description: fluorescence polarisation.

The target in assay [7] is T4, full-length mouse Nherf1 (mouse, UniProt P70441 1-355).
T4 sequence (looked up): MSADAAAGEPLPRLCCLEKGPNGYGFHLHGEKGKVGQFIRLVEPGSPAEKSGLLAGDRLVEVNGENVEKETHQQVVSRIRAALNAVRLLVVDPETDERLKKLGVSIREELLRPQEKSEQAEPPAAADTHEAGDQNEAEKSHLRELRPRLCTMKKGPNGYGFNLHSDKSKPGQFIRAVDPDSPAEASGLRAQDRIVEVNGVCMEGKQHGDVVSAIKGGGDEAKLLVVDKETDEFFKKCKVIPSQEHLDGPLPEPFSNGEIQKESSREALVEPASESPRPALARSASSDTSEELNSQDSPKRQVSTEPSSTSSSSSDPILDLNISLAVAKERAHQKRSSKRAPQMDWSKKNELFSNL
Description: fluorescence polarisation.

Assay [8] has as its target T3, full-length human PDZK1 (NHE3 …). Description: SEC. In general terms: Size exclusion chromatography separates by hydrodynamic size, large species first.
For assay [9] the target is unchanged. Description: SEC. This is another data set of the same source.

Read-outs that look alike come from different tables or passages of the source. Where no end group is shown, it is not given here. TAMRA = tetramethylrhodamine

For the molecule “PDZ1 domain of human NHERF1 (1PDZ1), C-terminal His8-tag (domain or fragment)”, the dissociation constant Kd in [1] turned out to be 4.4 µM.

As for “PDZ1 domain of human PDZK1 (3PDZ1), tag-less (domain or fragment)”, the Kd in [2] came out at 1.1 µM; in assay [1] it was 12.5 µM; in assay [3] it was 0.16 µM. Also, the koff in [2] came out at 0.494 s⁻¹. In assay [2], the kon worked out at 448000 M⁻¹ s⁻¹.

In the case of “PDZ2 domain of human NHERF1 (1PDZ2), C-terminal His8-tag (domain or fragment)”, the Kd in assay [1] is over 170 µM.

With “PDZ2 domain of human PDZK1 (3PDZ2), C-terminal His8-tag (domain or fragment)”, the Kd in assay [3] came to 22.1 µM.

As for “PDZ3 domain of human PDZK1 (3PDZ3), C-terminal His8-tag (domain or fragment)”, in [3], the Kd is over 200 µM.

In assay [2], “PDZ4 domain of human PDZK1 (3PDZ4), C-terminal His8-tag (domain or fragment)” came in with a Kd of 1.78 µM, a koff of 0.631 s⁻¹ and a kon of 354000 M⁻¹ s⁻¹. Further, the equilibrium dissociation constant (Kd) in assay [3] stood at 1.35 µM.

The molecule {TAMRA}-THGTLGNSVLKSTQF [URAT1 peptide (15 C-terminal residues of human URAT1), TAMRA-labelled] showed a Kd in assay [4] of over 70 µM.

As to {TAMRA}-SPRLALPAHHNATRL [NaPi-IIa peptide (15 C-terminal residues of NaPi-IIa), TAMRA-labelled], the Kd was 4 µM in assay [5], 8.1 µM in assay [6], 4 µM in assay [4] and 4.9 µM in assay [7].

As for {TAMRA}-THDTPDGSILMSTRL [Urat1 peptide (15 C-terminal residues of murine Urat1), TAMRA-labelled], the values for the Kd in [5] and in assay [7] were 0.026 µM and 0.59 µM, respectively.

With THGTLGNSVLKSTQF (not fully specified) [URAT1 peptide fused to the C-terminus of enhanced green fluorescent protein (GFP^URAT1)], the “stoichiometry N” value in assay [8] is 1.5 GFP^URAT1 per PDZK1 at the peak maximum; in assay [9], 1.4 GFP^URAT1 per PDZK1 at the peak maximum.

Usually Kd stands for the constant that tells how readily two partners part at equilibrium. A word on the koff: it is the rate constant with which the complex falls apart. Higher therefore signals a short-lived complex. As usually defined, the kon is the rate constant with which the complex forms.
